Here are results for four molecules from patent publication US20240182592A1 (CHIA TAI TIANQING PHARMACEUTICAL GROUP, published 2024).

Substitutions are numbered along the chain they refer to.

B1: 1A10-Fc (antibody, human IgG1, V domains shown)
VH: QVQLVESGGGSVQAGGSLRLSCAASGYSSNVACMAWYRQAPGKEREWVATIVADFGTTNYAASVKGRFTISQDNAKNTVYLQMNSLKPEDSAMYYCAATQRGGIDWCDEINYWGQGTLVTVSS
notes: also called anti-human BCMA VHH-Fc chimeric antibody 1A10-Fc
B2: 1A1-Fc (antibody, human IgG1, V domains shown)
VH: QVQLVESGGGSVQAGGSLRLSCTASGYTFRGWNKHWYRQAPGKERELVSSIFRDGKTAYTDSVKGRFTISQDNADATVYLQMNSLKPEDTAMYYCKYDLPGSGLPAFWGQGTLVTVSS
notes: Camel VHH fused to human IgG1 Fc; also called anti-human BCMA VHH-Fc chimeric antibody 1A1-Fc
B3: 1B10-Fc (antibody, human IgG1, V domains shown)
VH: B2 VH with Q1E, N73S, A106E
notes: Camel VHH fused to human IgG1 Fc; also called anti-human BCMA VHH-Fc chimeric antibody 1B10-Fc
B4: 1A11-Fc (antibody, human IgG1, V domains shown)
VH: QVQLVESGGGSVQAGGSLRLSCAASGVTFNSACMGWFRQAPGKEREGVARIETGYGGTVYADSVKGRFTISRDNAKNTVYLQMNSLKPEDTAMYYCAAKRSWCTPTWWHELDYNYWGQGTQVTVSS
notes: also called anti-human BCMA VHH-Fc chimeric antibody 1A11-Fc

As a reminder, the Kd is the equilibrium constant for the complex coming apart. One may read the EC50 as the concentration giving half of the maximal effect. In general, IC50 refers to the concentration at which inhibition is half-maximal.

Sequence of human BAFF-R protein (Q96RJ3 7-71 limits assumed): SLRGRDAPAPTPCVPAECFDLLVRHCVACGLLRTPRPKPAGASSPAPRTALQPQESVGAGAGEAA
T4 sequence (Q02223 other isoform, or with tags, fused parts or gaps): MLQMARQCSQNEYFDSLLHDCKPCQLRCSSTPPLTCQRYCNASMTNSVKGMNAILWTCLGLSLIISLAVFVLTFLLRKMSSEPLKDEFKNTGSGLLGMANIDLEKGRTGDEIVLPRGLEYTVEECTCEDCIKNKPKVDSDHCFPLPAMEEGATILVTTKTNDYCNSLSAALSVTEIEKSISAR

The target in the first test is T1, human BCMA-His (ACRO, product catalog No. BCA-H522y) (human, UniProt Q02223 1-54, biotin-conjugated in the ELISAs of Examples 5 and 6.1 (site not stated)).
T1 construct: Bought protein; also called BCMA-His protein; biotin-conjugated recombinant BCMA-His protein; not shown: His tag
T1 sequence (looked up): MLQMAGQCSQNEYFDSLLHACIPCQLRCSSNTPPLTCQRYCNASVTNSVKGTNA
Kind of test: competition ELISA (chessboard), biotin-BCMA-His; competitor: 1A11-Fc. As to the method: (§1) The anti-human BCMA VHH-Fc chimeric antibodies were diluted to 2 μg/mL and allowed to coat a high-adsorption microplate. The plate was washed and then blocked. […] According to a chessboard arrangement, the incubated mixtures of antigen and antibody or the biotin-conjugated BCMA-His protein alone (control group) were added in sequence to the well plate at 100 μL/well. The plate was incubated at 37° C. for 1 h. The plate was washed to remove unbound biotin-conjugated recombinant BCMA-His protein. HRP-conjugated streptavidin (eBioscience, product catalog No. 18-4100-51) was added, and the plate was washed 5 times and then subjected to color development. The light absorption signal values at the wavelength of 450 nm and the reference wavelength of 650 nm were measured. The blocking rate of one antibody for the binding signal of another antibody to BCMA-Bio was calculated according to the formula blocking rate=(signal value of control group−signal value of sample group)/signal value of control group×100%. Positive control groups in which antibodies competed with themselves are shown on the diagonal line “\” of the chessboard (indicated in gray).
In general terms: In an ELISA, binding on a coated surface is turned into a signal by an enzyme label.
For B1, the blocking rate was determined as 32.6%.

B2: the blocking rate amounted to 99.4%.

B3 displayed a blocking rate of 99.5%.

A further test has as its target T1, human BCMA-His (ACRO, product catalog …). Kind of test: competition ELISA (chessboard), biotin-BCMA-His; competitor: 1B10-Fc. Here is the method: as §1
In turn, B1 yielded a blocking rate of 46.4%.

In the case of B2, the blocking rate is 101%.

For B4, the blocking rate was found to be 99.4%.

The next test shares this target. Kind of test: competition ELISA (chessboard), biotin-BCMA-His; competitor: 1A10-Fc. Here is the method: as §1
B2 had a blocking rate of 7.6%.

Regarding B3, the blocking rate came out at 26.7%.

B4 returned a blocking rate of 21.6%.

The next test has as its target T2, human BCMA protein (human, UniProt Q02223 1-54, limits assumed).
T2 construct: also called hBCMA; Antigen BCMA
T2 sequence (looked up): T1 sequence (looked up)
Kind of test: SPR (Biacore T200), antibody captured by anti-hIgG, human BCMA as analyte, 1:1 model. As to the method: The affinity of the test antibody for human BCMA protein was determined by Biacore T200 (GE) as follows:
The response signals were detected in real time using Biacore software, and association and dissociation curves were obtained. The buffer used in the experiment was Biacore universal buffer (137 mM NaCl, 2.7 mM KCl, 10 mM Na₂HPO₄.12H₂O, 1.8 mM KH₂PO₄, 0.05% surfactant P-20 (w/v), pH 7.4). […] The flow rate in the flow cell was at 50 μL/min, the association was performed for 240 s, the dissociation was performed for 1400 s, the regeneration was performed using 3 M MgCl₂ (GE) for 60 s, and the baseline was stable. Results were obtained by calculation according to the affinity and kinetics 1:1 binding mode in biacore evaluation software.
A general note: Surface plasmon resonance follows binding to a sensor surface in real time, without labels.
In turn, B1 gave a dissociation constant Kd of 0.94 nM.

Molecule B4 gave a Kd of 3.96 nM.

In the next test the target is T3, human BCMA on cells (human, UniProt Q02223 1-184).
T3 construct: whole, on cells; also called CHO-hBCMA cells; U266 cells
T3 sequence (looked up): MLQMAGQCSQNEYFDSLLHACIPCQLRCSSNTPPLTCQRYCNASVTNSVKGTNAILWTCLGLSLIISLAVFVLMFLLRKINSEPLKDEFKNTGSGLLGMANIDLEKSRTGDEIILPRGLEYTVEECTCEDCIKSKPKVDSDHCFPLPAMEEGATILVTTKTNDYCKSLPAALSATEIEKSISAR
In words: flow cytometry, U266 cells. An excerpt: (§2) The binding of the anti-human BCMA VHH-Fc chimeric antibodies to target cells with different BCMA expression levels was detected by flow cytometry. The CHO-hBCMA cells (iCarTab Biotechnology (Suzhou) Co. Ltd., product catalog No. AKD001A) were a stably transfected cell line highly expressing BCMA. The U266 cells (Cell Culture Center, Institute of Basic Medical Sciences, Chinese Academy of Medical Sciences, product catalog No. 3111C0001CCC000684) were a natural human myeloma cell line expressing BCMA at medium levels. The PRMI8226 cells (Cell Culture Center, Institute of Basic Medical Sciences, Chinese Academy of Medical Sciences, product catalog No. 3111C0001CCC000083) were a natural human myeloma cell line expressing BCMA at low levels. The HUVEC cells (ScienCell Research Laboratories, product catalog No. […] 8000) were a human umbilical vein endothelial cell line not expressing BCMA. […] A PE-labeled anti-human IgG Fc antibody (Jackson Immuno Rescarch, product catalog No. 109-116-170) was added, and the mixture was incubated on ice for 0.5 h. The cells were washed and then tested using a flow cytometer (Thermo Fisher Scientific Inc., Attune NXT).
For B1, the EC50 was determined as 4.64 nM.

Consider B2, for which the response was half-maximal at 2.77 nM (EC50).

Regarding B3, the EC50 was found to be 1.72 nM.

Consider B4, for which the EC50 was 1.26 nM.

A further test has as its target T4, cynomolgus monkey BCMA on transiently transfected HEK293T cells (cynomolgus monkey, UniProt Q02223 1-184 (human entry)).
T4 construct: it may be a nucleotide entry; also called HEK293T-CynoBCMA
In words: flow cytometry, HEK293T cells transiently transfected with cynomolgus monkey BCMA. The source says: The cells were washed and then tested using a flow cytometer (Thermo Fisher Scientific Inc., Attune NXT).
B1 returned an EC50 of 2.02 nM.

As for B4, the EC50 worked out at 10.4 nM.

Another test has as its target T3, human BCMA on cells. Kind of test: flow cytometry, CHO-hBCMA cells.
From the text: as §2
On the technique in general: Flow cytometry measures light scatter and fluorescence of single cells or particles in a stream.
Regarding B1, the EC50 was determined as 4.28 nM.

For B2, the EC50 is 3.04 nM.

B3 yielded an EC50 of 2.51 nM.

For B4, the EC50 amounted to 2.08 nM.

A further test deals with T1, human BCMA-His (ACRO, product catalog …). Kind of test: competition ELISA (chessboard), biotin-BCMA-His; competitor: 1A1-Fc. Here is the method:
as §1
In turn, B1 gave a blocking rate of 36.9%.

In turn, B3 displayed a blocking rate of 100%.

In turn, B4 registered a blocking rate of 101%.

For the next test, the target named is cynomolgus monkey BCMA protein (cynomolgus monkey, UniProt A0A2K5UD97 1-53). In words: SPR (Biacore T200).
Sequence of cynomolgus monkey BCMA protein (A0A2K5UD97 entry or part of it limits assumed): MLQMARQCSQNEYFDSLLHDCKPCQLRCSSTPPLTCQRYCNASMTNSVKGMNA
In the case of B2, the binding result was “no binding”.

As to B3, the binding result was “no binding”.

A further test concerns the target T1, human BCMA-His (ACRO, product catalog …). In words: competitive ELISA: antibody blocks binding of biotin-BCMA-His to coated APRIL. As to the method: The plate was incubated at 37° C. for 1 h and then washed to remove unbound biotin-conjugated recombinant BCMA-His protein. HRP-conjugated streptavidin (eBioscience, product catalog No. 18-4100-51) was added, and the plate was washed 5 times and then subjected to color development. The light absorption signal values at the wavelength of 450 nm and the reference wavelength of 650 nm were measured.
Turning to B1, the IC50 was determined as 0.41 nM.

B2 returned an IC50 of 0.34 nM.

Turning to B3, the IC50 is 0.26 nM.

As for B4, the IC50 was found to be 0.76 nM.

A further test concerns the target human BAFF-R protein (human, UniProt Q96RJ3 7-71, limits assumed). In words: SPR (Biacore T200), antibody captured by anti-hIgG (Fc). Here is the method: (§3) The anti-human BCMA VHH-Fc chimeric antibodies were tested for specificity using a biomolecular interaction analysis system (GE, Biacore T200). An anti-hIgG (Fc) antibody (GE, product catalog No. BR-1008-39) was amino-coupled to a CM5 sensor chip. The anti-human BCMA VHH-Fc chimeric antibodies were diluted to 2 μg/mL with a running buffer (137 mM NaCl, 2.7 mM KCl, 10 mM Na₂HPO₄.12H₂O, 1.8 mM KH₂PO₄, 0.05% surfactant P-20 (w/v), pH 7.4), and capture was allowed for 90 s by passing the dilutions through experimental channels at a flow rate of 30 μL/min. Human TACI or BAFF-R protein was diluted to 100 nM with the running buffer, and binding was allowed by passing the dilution at a flow rate of 50 μL/min. The binding signal curve was observed.
For the molecule B1, the binding result is listed as “no binding (tested: 100 nM)”.

For the molecule B2, the binding result was “no binding (tested: 100 nM)”.

Take B3: the binding result was “no binding (tested: 100 nM)”.

B4: the binding result is “no binding (tested: 100 nM)”.

The target in another test is T5, human TACI protein (human, UniProt O14836 2-166, limits assumed).
T5 sequence (looked up): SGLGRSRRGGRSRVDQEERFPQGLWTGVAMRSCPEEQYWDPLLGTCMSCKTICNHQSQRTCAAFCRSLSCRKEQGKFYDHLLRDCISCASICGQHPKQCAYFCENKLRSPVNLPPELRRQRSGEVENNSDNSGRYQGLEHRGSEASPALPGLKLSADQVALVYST
Described as above. As to the method:
as §3
With B1, the binding result is given as “no binding (tested: 100 nM)”.

Take B2: the binding result is on record as “no binding (tested: 100 nM)”.

For B3, the binding result is recorded as “no binding (tested: 100 nM)”.

On to B4, for which the binding result is listed as “no binding (tested: 100 nM)”.
